B1: MBP-fused extracellular domain of human JAM-A (Gly27-Arg228) (domain or fragment, UniProt Q9Y624 27-228, looked up)
chain: GSVTVHSSEPEVRIPENNPVKLSCAYSGFSSPRVEWKFDQGDTTRLVCYNNKITASYEDRVTFLPTGITFKSVTREDTGTYTCMVSEEGGNSYGEVKVKLIVLVPPSKPTVNIPSSATIGNRAVLTCSEQDGSPPSEYTWFKDGIVMPTNPKSTRAFSNSSYVLNPTTGELVFDPLSASDTGEYSCEARNGYGTPMTSNAVR
notes: JAM-A, human, extracellular domain, Gly27-Arg228 of Q9Y624; No protease site between MBP and the target in the final design (pET28a-MBP, NdeI/XhoI); also called junctional adhesion molecule A; source: E. coli SHuffle T7 Express, purified (amylose resin, size exclusion chromatography); not shown: MBP, N-terminal, kept
B2: MBP-fused extracellular domain of human JAM4 (Gly34-Arg286) (domain or fragment, UniProt Q9NSI5 34-286, looked up)
chain: GSGSGNEVIEGPQNARVLKGSQARFNCTVSQGWKLIMWALSDMVVLSVRPMEPIITNDRFTSQRYDQGGNFTSEMIIHNVEPSDSGNIRCSLQNSRLHGSAYLTVQVMGELFIPSVNLVVAENEPCEVTCLPSHWTRLPDISWELGLLVSHSSYYFVPEPSDLQSAVSILALTPQSNGTLTCVATWKSLKARKSATVNLTVIRCPQDTGGGINIPGVLSSLPSLGFSLPTWGKVGLGLAGTMLLTPTCTLTIR
notes: JAM4, human, extracellular domain, Gly34-Arg286 of Q9NSI5; No protease site between MBP and the target in the final design; Decamer by size exclusion; source: E. coli SHuffle T7 Express, purified (amylose resin, size exclusion chromatography); not shown: MBP, N-terminal, kept
B3: MBP-fused extracellular domain of human JAM-B (Gly28-Ser238) (domain or fragment, UniProt P57087 28-238, looked up)
chain: GFSAPKDQQVVTAVEYQEAILACKTPKKTVSSRLEWKKLGRSVSFVYYQQTLQGDFKNRAEMIDFNIRIKNVTRSDAGKYRCEVSAPSEQGQNLEEDTVTLEVLVAPAVPSCEVPSSALSGTVVELRCQDKEGNPAPEYTWFKDGIRLLENPRLGSQSTNSSYTMNTKTGTLQFNTVSKLDTGEYSCEARNSVGYRRCPGKRMQVDDLNIS
notes: JAM-B, human, extracellular domain, Gly28-Ser238 of P57087; No protease site between MBP and the target in the final design; Octamer by size exclusion; also called junctional adhesion molecule B; source: E. coli SHuffle T7 Express, purified (amylose resin, size exclusion chromatography); not shown: MBP, N-terminal, kept
B4: MBP-fused extracellular domain of human JAM-C (Gly30-Glu236) (domain or fragment, UniProt Q9BX67 30-236, looked up)
chain: GAVNLKSSNRTPVVQEFESVELSCIITDSQTSDPRIEWKKIQDEQTTYVFFDNKIQGDLAGRAEILGKTSLKIWNVTRRDSALYRCEVVARNDRKEIDEIVIELTVQVKPVTPVCRVPKAVPVGKMATLHCQESEGHPRPHYSWYRNDVPLPTDSRANPRFRNSSFHLNSETGTLVFTAVHKDDSGQYYCIASNDAGSARCEEQEME
notes: JAM-C, human, extracellular domain, Gly30-Glu236 of Q9BX67; No protease site between MBP and the target in the final design; Tetramer by size exclusion; also called junctional adhesion molecule C; source: E. coli SHuffle T7 Express, purified (amylose resin, size exclusion chromatography); not shown: MBP, N-terminal, kept
B5: MBP-fused extracellular domain of human epithelial cadherin (Val102-Asp312) (domain or fragment)
chain: VIPPISCPENEKGPFPKNLVQIKSNKDKEGKVFYSITGQGADTPPVGVFIIERETGWLKVTEPLDRERIATYTLFSHAVSSNGNAVEDPMEILITVTDQNDNKPEFTQEVFKGSVMEGALPGTSVMEVTATDADDDVNTYNAAIAYTILSQDPELPDKNMFTINRNTGVISVVTTGLDRESFPTYTLVVQAADLQGEGLSTTATAVITVTD

What was measured:
[1] = target: B3; test: SPR; OpenSPR (Nicoya), ligand protein (0.100 mg) amine-coupled to a Carboxy sensor chip; 1 M sodium caprate injected to disrupt preformed interactions and after each analyte; analyte 12.5-100 ug per 200 uL injection, triplicate; global fit, 1:1 Langmuir model, TraceDraw; settings: both partners purified
[2] = target: the molecule itself; test: as above
[3] = target: B2; test: as above; settings: both partners purified
[4] = target: the molecule itself; test: SEC; ENrich SEC 650 10 x 300 column, PBS as running buffer; peak positions compared with BioRad size exclusion standards; oligomeric state of the MBP fusion
[5] = target: the molecule itself; test: SPR; as the other SPR (OpenSPR, amine-coupled ligand on a Carboxy chip, caprate between injections, 1:1 Langmuir fit) but in the presence of 3 mM CaCl2 (E-CAD experiments)
[6] = target: B1; test: as above; settings: both partners purified

| Kd [1] | koff [1] | kon [1] | Kd [3] | koff [3] | kon [3] | Kd [6] | koff [6] | kon [6] | Binder | Kd [2] | koff [2] | kon [2] | stoichiometry N [4] | Kd [5] | koff [5] | kon [5] |
| --- | --- | --- | --- | --- | --- | --- | --- | --- | --- | --- | --- | --- | --- | --- | --- | --- |
| 2.82 nM | 5.09e-05 s⁻¹ | 16500 M⁻¹ s⁻¹ | 2.33 nM | 4.09e-06 s⁻¹ | 1600 M⁻¹ s⁻¹ |  |  |  | B1 | 76.6 nM | 0.000838 s⁻¹ | 13100 M⁻¹ s⁻¹ | 2 |  |  |  |
|  |  |  |  |  |  |  |  |  | B2 | 0.139 nM | 2.04e-07 s⁻¹ | 1670 M⁻¹ s⁻¹ | 10 |  |  |  |
|  |  |  | 159 nM | 0.000128 s⁻¹ | 1210 M⁻¹ s⁻¹ |  |  |  | B3 | 9.97 nM | 5.36e-05 s⁻¹ | 4800 M⁻¹ s⁻¹ | 8 |  |  |  |
| 0.203 nM | 1.76e-05 s⁻¹ | 85400 M⁻¹ s⁻¹ | 0.0925 nM | 1.96e-07 s⁻¹ | 2030 M⁻¹ s⁻¹ |  |  |  | B4 | 30.2 nM | 2.26e-05 s⁻¹ | 782 M⁻¹ s⁻¹ | 4 |  |  |  |
|  |  |  |  |  |  | 308 nM | 0.000708 s⁻¹ | 2340 M⁻¹ s⁻¹ | B5 |  |  |  | 2 | 197 nM | 0.000696 s⁻¹ | 4650 M⁻¹ s⁻¹ |

— paper PMC8037251, “Molecular Characterization of the Extracellular Domain of Human Junctional Adhesion Proteins” (International Journal of Molecular Sciences, 2021)
